Measurements: the supplement of paper PMC6757056
± gives the standard deviation of the averaged measurements.

B1: library; a variant is named by its letters at N, in order (parent)
chain: GCUGUCACCGAGAAACUGUGAAGUAUAUCUUAAACCUGGGCACUUAAAAGAUAUAUGGAGUUAGUAGUGCAACCUGCUCGGUCUGAUGAGUCCNNNNNNGGACGAAACAGC

Experiments:
cyclic di-GMP [1] = variants of: B1; test: normalized RNA/DNA level without ligand (relative to sTRSVctl = 100) (log10 (% of sTRSVctl)); HEK293T; ligand: cyclic di-GMP (c-di-GMP-II aptamer); higher = less ribozyme self-cleavage, higher mRNA level; details: reporter: mCherry (pCS4076), ligand present: no
How it was run: (§1)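 For each 6-well well, 4 µg of library plasmid encoding mCherry-linked ribozyme switches, or eGFP-linked ones in some ligand experiments, was transfected into HEK293T. Any ligand was added 1 h before transfection, and RNA was extracted with EDTA 72 h after it, then reverse-transcribed, amplified, barcoded and sequenced. RNA level was obtained by dividing RNA reads by DNA reads, normalizing to a spiked-in non-cleaving sequence or to the top sequences, then scaling and log-transforming. The top set was 25 sequences, scaling was ×100 with log10, and ≥100 DNA reads were required.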

cyclic di-GMP [2] = variants of: B1; test: normalized RNA/DNA level with ligand (relative to sTRSVctl = 100) (log10 (% of sTRSVctl)); HEK293T; ligand: cyclic di-GMP (c-di-GMP-II aptamer); ligand concentration (+) RNA-Seq: 1 mM; higher = less ribozyme self-cleavage, higher mRNA level; details: reporter: mCherry (pCS4076), ligand present: yes
How it was run: as §1

| Variant | normalized RNA/DNA level without ligand (log10) (cyclic di-GMP [1]) | normalized RNA/DNA level with ligand (log10) (cyclic di-GMP [2]) |
| --- | --- | --- |
| AAGUGA | 1.38 ± 0.19 | 1.5546 ± 0.00035 |
| AAGUGU | 1.6 ± 0.034 | 1.76 ± 0.14 |
| GAUCGG | 1.747 ± 0.013 | 1.82 ± 0.034 |
| GAUCGC | 1.74 ± 0.019 | 1.86 ± 0.051 |
| GAUCGU | 1.65 ± 0.046 | 1.81 ± 0.087 |
| CAUAGA | 1.54 ± 0.073 | 1.69 ± 0.031 |
| CAUAGC | 1.73 ± 0.062 | 1.84 ± 0.13 |
| CAUAGG | 1.688 ± 0.011 | 1.85 ± 0.093 |
| GAGGGU | 1.71 ± 0.024 | 1.75 ± 0.14 |
| CAGUUG | 1.76 ± 0.019 | 1.87 ± 0.11 |
| UAUCGC | 1.76 ± 0.019 | 1.83 ± 0.15 |
| UAUCGA | 1.609 ± 0.0048 | 1.79 ± 0.12 |
| UAUCGG | 1.743 ± 0.0093 | 1.84 ± 0.11 |
| UAUCGU | 1.67 ± 0.02 | 1.79 ± 0.095 |
| CAUUCG | 1.83 ± 0.091 | 1.95 ± 0.14 |
| CAUUCA | 1.38 ± 0.087 | 1.56 ± 0.12 |
| CAUUCU | 1.55 ± 0.07 | 1.73 ± 0.12 |
| CAUUCC | 1.781 ± 0.0028 | 1.87 ± 0.041 |
| AAUACU | 1.71 ± 0.023 | 1.84 ± 0.085 |
| AAUACC | 1.71 ± 0.031 | 1.86 ± 0.069 |
| AAUACA | 1.56 ± 0.017 | 1.74 ± 0.1 |
| UAUCCU | 1.755 ± 0.013 | 1.87 ± 0.13 |
| UAUCCA | 1.77 ± 0.062 | 1.86 ± 0.097 |
| UAUCCG | 1.8 ± 0.022 | 1.87 ± 0.095 |

| Variant | normalized RNA/DNA level without ligand (log10) (cyclic di-GMP [1]) | normalized RNA/DNA level with ligand (log10) (cyclic di-GMP [2]) |
| --- | --- | --- |
| UAUCCC | 1.83 ± 0.0035 | 1.9 ± 0.055 |
| AAUGUA | 1.525 ± 0.01 | 1.64 ± 0.16 |
| AAUGUC | 1.68 ± 0.03 | 1.84 ± 0.11 |
| GAGGUA | 1.698 ± 0.0042 | 1.77 ± 0.1 |
| GAGGUG | 1.74 ± 0.049 | 1.84 ± 0.087 |
| GAGGUU | 1.73 ± 0.072 | 1.85 ± 0.083 |
| GAGGUC | 1.68 ± 0.042 | 1.82 ± 0.11 |
| UAUGCA | 1.77 ± 0.061 | 1.87 ± 0.16 |
| UAUGCG | 1.78 ± 0.029 | 1.86 ± 0.1 |
| UAUGCU | 1.72 ± 0.043 | 1.86 ± 0.11 |
| UAUGCC | 1.81 ± 0.042 | 1.91 ± 0.15 |
| CAUAAG | 1.706 ± 0.013 | 1.82 ± 0.1 |
| CAUAAC | 1.62 ± 0.028 | 1.75 ± 0.1 |
| UAGGUU | 1.67 ± 0.051 | 1.82 ± 0.11 |
| UAGGUA | 1.55 ± 0.018 | 1.72 ± 0.05 |
| UAGGUC | 1.64 ± 0.032 | 1.81 ± 0.12 |
| UAGGUG | 1.58 ± 0.068 | 1.77 ± 0.093 |
| AAUGGU | 1.62 ± 0.048 | 1.76 ± 0.1 |
| UAUUAU | 1.682 ± 0.011 | 1.82 ± 0.14 |
| UAUUAG | 1.73 ± 0.042 | 1.87 ± 0.068 |
| CAUCUA | 1.4 ± 0.058 | 1.58 ± 0.066 |
| CAUCUG | 1.76 ± 0.073 | 1.88 ± 0.13 |
| CAUCUU | 1.56 ± 0.04 | 1.75 ± 0.1 |
| GAUAAC | 1.675 ± 0.0073 | 1.85 ± 0.1 |

| Variant | normalized RNA/DNA level without ligand (log10) (cyclic di-GMP [1]) | normalized RNA/DNA level with ligand (log10) (cyclic di-GMP [2]) |
| --- | --- | --- |
| GAUAAG | 1.54 ± 0.036 | 1.72 ± 0.1 |
| UAGUUA | 1.67 ± 0.025 | 1.83 ± 0.13 |
| UAGUUC | 1.71 ± 0.031 | 1.89 ± 0.057 |
| CAUGCU | 1.72 ± 0.056 | 1.84 ± 0.097 |
| CAUGCA | 1.52 ± 0.05 | 1.66 ± 0.067 |
| CAUGCC | 1.79 ± 0.029 | 1.89 ± 0.15 |
| CAUGCG | 1.81 ± 0.029 | 1.9 ± 0.14 |
| CAUUAC | 1.6236 ± 0.00067 | 1.79 ± 0.13 |
| CAUUAG | 1.74 ± 0.021 | 1.84 ± 0.087 |
| GAUUAG | 1.68 ± 0.046 | 1.8 ± 0.089 |
| GAUUAC | 1.722 ± 0.0096 | 1.83 ± 0.081 |
| GAUUAU | 1.62 ± 0.022 | 1.77 ± 0.07 |
| CAUCGC | 1.783 ± 0.015 | 1.87 ± 0.043 |
| CAUCGG | 1.78 ± 0.048 | 1.84 ± 0.12 |
| CAUCGU | 1.74 ± 0.095 | 1.83 ± 0.098 |
| CAGGGU | 1.673 ± 0.014 | 1.82 ± 0.096 |
| GAGUCA | 1.82 ± 0.021 | 1.9 ± 0.085 |
| GAGUCG | 1.83 ± 0.031 | 1.88 ± 0.092 |
| GAGUCU | 1.8 ± 0.07 | 1.85 ± 0.076 |
| GAGUCC | 1.8 ± 0.043 | 1.88 ± 0.064 |
| CAGUGG | 1.68 ± 0.022 | 1.86 ± 0.065 |
| CAGUGU | 1.718 ± 0.0057 | 1.84 ± 0.12 |
| CAGUGA | 1.52 ± 0.043 | 1.7 ± 0.12 |
| CAGUGC | 1.71 ± 0.05 | 1.81 ± 0.11 |

| Variant | normalized RNA/DNA level without ligand (log10) (cyclic di-GMP [1]) | normalized RNA/DNA level with ligand (log10) (cyclic di-GMP [2]) |
| --- | --- | --- |
| AAGUUU | 1.724 ± 0.0032 | 1.88 ± 0.076 |
| AAGUUC | 1.6603 ± 0.0013 | 1.84 ± 0.11 |
| AAGUUG | 1.56 ± 0.072 | 1.75 ± 0.11 |
| UAUCUU | 1.72 ± 0.054 | 1.88 ± 0.088 |
| UAUCUA | 1.683 ± 0.0069 | 1.81 ± 0.097 |
| UAUCUC | 1.81 ± 0.039 | 1.9 ± 0.1 |
| UAUCUG | 1.725 ± 0.011 | 1.87 ± 0.089 |
| GAUAUA | 1.53 ± 0.032 | 1.7 ± 0.1 |
| GAUAUU | 1.61 ± 0.019 | 1.8 ± 0.13 |
| GAUAUG | 1.52 ± 0.028 | 1.71 ± 0.096 |
| GAUAUC | 1.6972 ± 0.0005 | 1.86 ± 0.12 |
| AAUCGA | 1.49 ± 0.07 | 1.69 ± 0.094 |
| AAUCGC | 1.74 ± 0.018 | 1.89 ± 0.12 |
| AAUCGG | 1.6 ± 0.048 | 1.76 ± 0.12 |
| AAUCGU | 1.65 ± 0.038 | 1.81 ± 0.11 |
| CAGUCA | 1.41 ± 0.1 | 1.52 ± 0.13 |
| CAGUCU | 1.52 ± 0.048 | 1.68 ± 0.12 |
| CAGUCG | 1.76 ± 0.067 | 1.9 ± 0.12 |
| AAGUAC | 1.657 ± 0.007 | 1.8 ± 0.14 |
| AAGUAA | 1.45 ± 0.12 | 1.63 ± 0.089 |
| AAGUAU | 1.62 ± 0.032 | 1.8 ± 0.095 |
| AAGUAG | 1.68 ± 0.024 | 1.77 ± 0.12 |
| CAUACA | 1.38 ± 0.11 | 1.58 ± 0.1 |
| CAUACG | 1.81 ± 0.051 | 1.91 ± 0.052 |

| Variant | normalized RNA/DNA level without ligand (log10) (cyclic di-GMP [1]) | normalized RNA/DNA level with ligand (log10) (cyclic di-GMP [2]) |
| --- | --- | --- |
| CAUACU | 1.51 ± 0.044 | 1.7 ± 0.12 |
| AAUUCC | 1.79 ± 0.028 | 1.88 ± 0.14 |
| AAUUCG | 1.6472 ± 0.0012 | 1.8 ± 0.12 |
| AAUUCA | 1.62 ± 0.078 | 1.8 ± 0.12 |
| UAUAUG | 1.71 ± 0.044 | 1.84 ± 0.12 |
| UAUAUU | 1.68 ± 0.043 | 1.86 ± 0.12 |
| UAUAUA | 1.68 ± 0.076 | 1.86 ± 0.11 |
| CAUAUC | 1.63 ± 0.069 | 1.79 ± 0.047 |
| CAUAUU | 1.45 ± 0.13 | 1.64 ± 0.067 |
| CAUAUG | 1.718 ± 0.017 | 1.81 ± 0.053 |
| UAUGAG | 1.653 ± 0.0081 | 1.82 ± 0.12 |
| GAGUUU | 1.79 ± 0.031 | 1.87 ± 0.11 |
| GAGUUC | 1.81 ± 0.069 | 1.9 ± 0.06 |
| AAUAAU | 1.63 ± 0.051 | 1.8 ± 0.077 |
| AAUAAC | 1.634 ± 0.013 | 1.8 ± 0.092 |
| AAUAAG | 1.52 ± 0.064 | 1.7 ± 0.096 |
| AAUAUC | 1.67 ± 0.022 | 1.81 ± 0.079 |
| AAUAUA | 1.53 ± 0.054 | 1.72 ± 0.13 |
| AAUAUU | 1.667 ± 0.015 | 1.83 ± 0.083 |
| AAUAUG | 1.61 ± 0.06 | 1.74 ± 0.11 |
